Test results from patent publication US20250271431A1 (NEW ERA MABS, published 2025).

Target: SARS-CoV-2 Spike protein (D614G, furin-cleavage site destroyed, FKO) on SARS-CoV-2 virus-like particles (VLPs) (SARS-CoV-2, UniProt P0DTC2 14-1273)

B1: hcAb A7.2 (clone A7_2), camelid full length IgG2 heavy chain only antibody (antibody, V domains shown)
VH: DVQLQESGGGLVQPGKSLKLSCAAFGFAFSSTWMHWVRQAPGKGPEWVAFINPGGEKTMHADSVKGRFTISRDDAKNTLYLQMNNLKPEDTAVYYCAIERKDAFSWGQGTQVTVSS
Q: B1 was tested. Which “EC50 (read off the curve)” value did it give?
A: ~400 µg/mL
